The text below walks through data of patent publication US7812117B2, “Vasostatin as marrow protectant” (The United States of America as represented by the …, priority 1998, dated 2010).

One experiment deals with human CD34+ cells. As to the kind of experiment: Proliferation of purified human peripheral blood CD34+ cells. The class given is cell-based. Here is the method:
FIG. 12 is a bar graph of the proliferative responses of human CD34-positive cells to vaso. Human CD34-positive cells purified (>90% purity) from the peripheral blood of a normal individual after G-CSF mobilization following standard procedures were cultured (1×10^6 cells/ml) in 24 well tissue culture plates in RPMI 1640 medium supplemented with 15% FBS. […] Vaso was added at 10 μg/ml. Cell proliferation was measured during the final 22 hr of a 5, 6 or 9 day culture by ^3H thymidine incorporation. Data is shown as the mean of triplicate cultures.
To this end, CD34+ cells were purified to a high degree of homogeneity (>90% purity) from the peripheral blood of normal donors, according to established protocols (Mavroudis et al. Bone Marrow Transplant 21:431-40, 1998).
(§1) The purified human CD34+ cells along with the negatively selected CD34− mononuclear cell population were cultured in RPMI 1640 medium containing 15% FBS. Human Stem Cell Factor (300 ng/ml) and Flt-3 ligand (300 ng/ml) were added to the culture medium. […] Thus, purified hematopoietic cells from both mouse and man proliferate in response to vaso.
Vaso, calreticulin fragment 103-163, calreticulin fragment 120-146, and calreticulin fragment 128-146 (all used at 10 μg/ml) were tested in side-by-side assays for their ability to stimulate murine bone marrow hematopoietic cells in the presence of IL-3 (20 ng/ml). […]

Experiment [1] concerns CD34- mononuclear cell population. The experiment in a line: Proliferation of negatively selected human CD34- mononuclear cells. The class given is cell-based. The conditions noted are these: Stem Cell Factor and Flt-3 ligand alone or in conjunction with vaso. Here is the method:
as §1

B1: vaso: N-terminal domain of calreticulin (amino acids 1-180, SEQ ID NO:3); given as fusion protein with maltose binding protein, MBP-vaso (protein)
chain: EPAVYFKEQFLDGDGWTSRWIESKHKSDFGKFVLSSGKFYGDEEKDKGLQTSQDARFYALSASFEPFSNKGQTLVVQFTVKHEQNIDCGGGYVKLFPNSLDQTDMHGDSEYNIMFGPDICGPGTKKVHVIFNYKGKNVLINKDIRCKDDEFTHLYTLIVRPDNTYEVKIDNSQVESGSLE
modifications: Vasostatin
Turning to B1, the “cell growth of purified human CD34+ peripheral blood cells” value with human CD34+ cells (IL-3 alone or IL-3 together with IL-6 and Stem Cell Factor) was “similarly stimulated cell growth”. Moreover, in the experiment with human CD34+ cells (vaso 10 μg/ml, Stem Cell Factor 300 ng/ml and Flt-3 ligand 300 ng/ml), the “proliferation of CD34+ cells” value is “responded with increased proliferation”. For the same molecule, in experiment [1], the “proliferation of CD34- cell population” value is given as “proliferated minimally”.
